Data on one molecule can be found in patent US20240327514A1 (Janssen / Centocor, published 2024).

For the test, the target named is T1, human CD123 (human, UniProt P26951 19-378).
T1 construct: whole, on cells; Target presented on CD123+ AML cell lines; also called CD123 on CD123+ AML cells
Kind of test: flow cytometry on tumor cell lines, detection with mouse anti-human IgG4. As for the experimental part:
All tumor cells were centrifuged, washed twice with Dulbecco's phosphate-buffered saline (DPBS) and 1×10^4 cells were added to the center of each well of a 96 well U bottom plate along with fragment crystallizable (Fc) block (human IgG1 fragment) which was added at 2 mg/mL for 10 minutes. Serially diluted bispecific antibodies were added to the appropriate wells. Plates were incubated in the dark at 37° C. with 5% CO₂ for 4 hours. The cells were then washed with DPBS and binding of the bispecific antibody was detected by staining with mouse anti-human IgG4 (Southern Biotech, clone HP6025, catalog #9200-09) and LIVE/DEAD (L/D; Invitrogen, catalog #L34976) for 30 minutes. Finally, cells were washed, resuspended in stain buffer, and analyzed on the FACSCanto II flow cytometer (BD Biosciences). Geometric mean fluorescence intensity (gMFI) was plotted in Prism version 7 (GraphPad). The X axis was log transformed and a 4 parameter non-linear curve fit was applied.
Background: In flow cytometry, cells or beads pass a laser one at a time.

T1 sequence (P26951 19-378): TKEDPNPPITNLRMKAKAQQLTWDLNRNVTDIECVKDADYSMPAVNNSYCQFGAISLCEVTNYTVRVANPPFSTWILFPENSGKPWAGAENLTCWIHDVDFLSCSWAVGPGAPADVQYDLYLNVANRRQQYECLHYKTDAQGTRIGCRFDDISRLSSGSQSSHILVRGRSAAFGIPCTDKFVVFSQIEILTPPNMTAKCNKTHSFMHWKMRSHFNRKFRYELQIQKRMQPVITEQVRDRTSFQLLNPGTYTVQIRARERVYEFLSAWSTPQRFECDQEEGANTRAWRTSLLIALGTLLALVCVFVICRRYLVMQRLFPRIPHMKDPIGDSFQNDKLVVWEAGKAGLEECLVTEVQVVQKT

B1: CD123×CD3 bispecific antibody (bispecific antibody, human IgG4 S228P, kappa, lambda, F234A L235A)
heavy 1: not shown
light 1: EIVLTQSPGTLSLSPGERATLSCRASQSVSSSYLAWYQQKPGQAPRLLIYGASSRATGIPDRFSGSGSGTDFTLTISRLEPEDFAVYYCQQDYGFPWTFGQGTKVEIKRTVAAPSVFIFPPSDEQLKSGTASVVCLLNNFYPREAKVQWKVDNALQSGNSQESVTEQDSKDSTYSLSSTLTLSKADYEKHKVYACEVTHQGLSSPVTKSFNRGEC
heavy 2: EVQLVESGGGLVQPGGSLKLSCAASGFTFNTYAMNWVRQASGKGLEWVGRIRSKYNAYATYYAASVKGRFTISRDDSKNTAYLQMNSLKTEDTAVYYCTRHGNFGNSYVSWFAYWGQGTLVTVSSASTKGPSVFPLAPCSRSTSESTAALGCLVKDYFPEPVTVSWNSGALTSGVHTFPAVLQSSGLYSLSSVVTVPSSSLGTKTYTCNVDHKPSNTKVDKRVESKYGPPCPPCPAPEAAGGPSVFLFPPKPKDTLMISRTPEVTCVVVDVSQEDPEVQFNWYVDGVEVHNAKTKPREEQFNSTYRVVSVLTVLHQDWLNGKEYKCKVSNKGLPSSIEKTISKAKGQPREPQVYTLPPSQEEMTKNQVSLTCLVKGFYPSDIAVEWESNGQPENNYKTTPPVLDSDGSFLLYSKLTVDKSRWQEGNVFSCSVMHEALHNHYTQKSLSLSLGK
light 2: QAVVTQEPSLTVSPGGTVTLTCRSSTGAVTTSNYANWVQQKPGQAPRGLIGGTNKRAPGTPARFSGSLLGGKAALTLSGAQPEDEAEYYCALWYSNLWVFGGGTKLTVLGQPKAAPSVTLFPPSSEELQANKATLVCLISDFYPGAVTVAWKADSSPVKAGVETTTPSKQSNNKYAASSYLSLTPEQWKSHRSYSCQVTHEGSTVEKTVAPTECS
notes: also called CD123xCD3 DuoBody antibody
In the case of B1, the binding result was “binds”.
